One may read the Kd as the concentration at which binding is half-saturated. A high value points to a looser complex.

The source of these data is publication PMC12473165 (2025).

The target of this test is LysdesArg9BK (Homo sapiens, 3H label on peptide). Kind of test: radioligand binding on HEK293 cells.

B1: B1R (protein)
chain: MASSWPPLELQSSNQSQLFPQNATACDNAPEAWDLLHRVLPTFIISICFFGLLGNLFVLLVFLLPRRQLNVAEIYLANLAASDLVFVLGLPFWAENIWNQFNWPFGALLCRVINGVIKANLFISIFLVVAISQDRYRVLVHPMASRRQQRRRQARVTCVLIWVVGGLLSIPTFLLRSIQAVPDLNITACILLLPHEAWHFARIVELNILGFLLPLAAIVFFNYHILASLRTREEVSRTRCGGRKDSKTTALILTLVVAFLVCWAPYHFFAFLEFLFQVQAVRGCFWEDFIDLGLQLANFFAFTNSSLNPVIYVFVGRLFRTKVWELYKQCTPKSLAPISSSHRKEIFQLFWRN
Take B1: the dissociation constant (Kd) was 1.3 nM. That is a single-digit nanomolar value.
